Source: article PMC13463089, “PA200 modulates immunoproteasome structure and activity” (Nature Communications, 2026)
One block for each molecule: values may come before it. Numbered stars: 1 amine (or outer) side, 2 acyl side, 3 side chain; on linkers, the order of the positions; unused ones are H or OH. Peptide text beside a SMILES is read from it. * marks the point of attachment. AMC = Cc1cc(=O)oc2cc(N*)ccc12; Suc = O=C(CCC(=O)[*:2])[*:1]

Experiments:
[1] = target: T1, i20S (20S immunoproteasome), beta5i site (Homo sapiens, UniProt P28062); assay: fluorogenic AMC release; assay type: biochemical; settings: chymotrypsin-like (beta5i) site; 200 uM substrate, 1.5 nM 20S, pH 7.6, 37 C
T1 construct: gene PSMB8; with Proteasome subunit beta type-9; Proteasome subunit beta type-10; Proteasome subunit alpha type-6; Proteasome subunit alpha type-2; Proteasome subunit alpha type-4; Proteasome subunit alpha type-7; Proteasome subunit alpha type-5; Proteasome subunit alpha type-1; Proteasome subunit alpha type-3; Proteasome subunit beta type-3; Proteasome subunit beta type-2; Proteasome subunit beta type-1; Proteasome subunit beta type-4
T1 sequence (P28062 73-276): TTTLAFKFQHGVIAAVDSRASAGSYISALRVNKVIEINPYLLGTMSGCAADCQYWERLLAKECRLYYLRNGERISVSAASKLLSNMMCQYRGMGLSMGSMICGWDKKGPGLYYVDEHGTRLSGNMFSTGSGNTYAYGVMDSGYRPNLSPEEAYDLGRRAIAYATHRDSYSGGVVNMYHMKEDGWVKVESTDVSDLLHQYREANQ

[2] = target: T2, s20S (standard 20S proteasome), beta5 site (Homo sapiens, UniProt P28074); assay: fluorogenic AMC release; assay type: biochemical; settings: chymotrypsin-like (beta5) site; 200 uM substrate, 1.5 nM 20S, pH 7.6, 37 C
T2 construct: gene PSMB5; with Proteasome subunit beta type-6; Proteasome subunit beta type-7; Proteasome subunit alpha type-6; Proteasome subunit alpha type-2; Proteasome subunit alpha type-4; Proteasome subunit alpha type-7; Proteasome subunit alpha type-5; Proteasome subunit alpha type-1; Proteasome subunit alpha type-3; Proteasome subunit beta type-3; Proteasome subunit beta type-2; Proteasome subunit beta type-1; Proteasome subunit beta type-4
T2 sequence (P28074 60-263): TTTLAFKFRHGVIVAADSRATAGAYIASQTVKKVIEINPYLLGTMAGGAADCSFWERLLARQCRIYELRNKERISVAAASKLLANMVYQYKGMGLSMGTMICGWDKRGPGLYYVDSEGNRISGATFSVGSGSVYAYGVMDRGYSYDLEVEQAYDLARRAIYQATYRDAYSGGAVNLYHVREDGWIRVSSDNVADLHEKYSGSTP

[3] = target: human i20S purified from HEK293-EBNA cells (human) (UniProt P60900); assay: mass photometry; 20S at 120 nM titrated with PA200 (PA200:20S molar ratios from 0 to 15), Tris 50 mM pH 7.6, 2 h on ice, diluted six times to 20 nM 20S immediately before measurement; apparent KD from counts of free, singly- and doubly-capped 20S
[4] = target: human standard 20S proteasome (s20S) purchased from Enzo (human) (UniProt P60900); assay: as above
[5] = target: T3, recombinantly expressed and purified human PA200 (human), Q14997; assay: as above; settings: remark: other sources report otherwise
T3 chain: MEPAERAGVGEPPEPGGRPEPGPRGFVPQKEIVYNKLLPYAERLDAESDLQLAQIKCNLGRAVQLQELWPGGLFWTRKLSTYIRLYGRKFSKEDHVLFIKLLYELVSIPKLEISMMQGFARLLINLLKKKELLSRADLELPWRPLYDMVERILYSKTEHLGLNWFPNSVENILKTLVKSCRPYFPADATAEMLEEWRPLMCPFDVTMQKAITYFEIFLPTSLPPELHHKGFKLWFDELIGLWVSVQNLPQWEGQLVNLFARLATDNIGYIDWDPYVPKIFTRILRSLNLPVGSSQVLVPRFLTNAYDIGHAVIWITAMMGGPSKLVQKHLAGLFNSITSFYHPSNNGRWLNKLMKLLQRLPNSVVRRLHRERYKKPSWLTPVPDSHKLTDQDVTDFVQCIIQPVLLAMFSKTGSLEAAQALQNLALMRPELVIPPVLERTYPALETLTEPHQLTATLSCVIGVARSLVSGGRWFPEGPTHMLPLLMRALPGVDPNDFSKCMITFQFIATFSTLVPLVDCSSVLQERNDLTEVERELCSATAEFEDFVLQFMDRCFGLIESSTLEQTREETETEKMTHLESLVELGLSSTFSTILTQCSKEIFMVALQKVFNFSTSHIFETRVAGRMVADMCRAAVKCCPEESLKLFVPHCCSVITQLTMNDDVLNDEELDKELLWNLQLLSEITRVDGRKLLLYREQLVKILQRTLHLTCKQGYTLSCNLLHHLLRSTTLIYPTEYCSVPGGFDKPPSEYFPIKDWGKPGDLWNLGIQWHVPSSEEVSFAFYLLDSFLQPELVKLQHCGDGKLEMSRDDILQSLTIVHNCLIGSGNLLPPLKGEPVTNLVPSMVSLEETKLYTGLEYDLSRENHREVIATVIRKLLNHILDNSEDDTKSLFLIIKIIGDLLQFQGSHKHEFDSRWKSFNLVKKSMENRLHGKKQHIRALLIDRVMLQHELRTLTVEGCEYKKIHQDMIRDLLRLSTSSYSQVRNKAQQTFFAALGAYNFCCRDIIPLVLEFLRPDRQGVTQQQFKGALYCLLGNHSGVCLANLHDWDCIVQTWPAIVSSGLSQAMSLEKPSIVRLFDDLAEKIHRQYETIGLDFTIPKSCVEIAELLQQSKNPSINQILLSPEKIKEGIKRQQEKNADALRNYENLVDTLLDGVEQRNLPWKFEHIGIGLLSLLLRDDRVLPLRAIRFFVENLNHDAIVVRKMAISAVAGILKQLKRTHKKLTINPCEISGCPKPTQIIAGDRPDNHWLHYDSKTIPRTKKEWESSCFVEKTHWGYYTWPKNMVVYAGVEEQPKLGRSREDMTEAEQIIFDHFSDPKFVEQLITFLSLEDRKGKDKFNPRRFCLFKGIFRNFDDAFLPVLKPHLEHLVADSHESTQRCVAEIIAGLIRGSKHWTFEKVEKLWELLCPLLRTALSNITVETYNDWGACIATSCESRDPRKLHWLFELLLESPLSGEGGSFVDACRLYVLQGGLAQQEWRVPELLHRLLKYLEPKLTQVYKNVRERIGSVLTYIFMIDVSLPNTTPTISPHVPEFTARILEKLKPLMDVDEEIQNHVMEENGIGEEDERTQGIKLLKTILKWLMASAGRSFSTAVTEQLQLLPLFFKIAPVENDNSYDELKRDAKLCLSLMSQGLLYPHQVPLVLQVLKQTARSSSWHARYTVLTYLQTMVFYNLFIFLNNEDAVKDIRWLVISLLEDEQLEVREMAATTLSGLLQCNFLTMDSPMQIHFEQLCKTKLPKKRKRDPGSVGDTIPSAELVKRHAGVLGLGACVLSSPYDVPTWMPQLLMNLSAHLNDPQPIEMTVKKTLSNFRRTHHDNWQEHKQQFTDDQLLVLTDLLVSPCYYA

Molecule: Cc1cc(=O)oc2cc(NC(=O)[C@H](Cc3ccc(O)cc3)NC(=O)[C@@H](NC(=O)[C@H](CC(C)C)NC(=O)[C@H](CC(C)C)NC(=O)CCC(=O)O)C(C)C)ccc12 [Suc-LLVY-AMC] (Suc-LLVY-{AMC})
fluorogenic AMC release [1]: the baseline CT-L and T-L activities of the i20S and s20S were similar | fluorogenic AMC release [2]: the baseline CT-L and T-L activities of the i20S and s20S were similar

apparent KD of the first PA200 binding event [3]: 40 nM | apparent KD of the second PA200 binding event [3]: 150 nM | apparent KD of the first PA200 binding event [4]: 40 nM | apparent KD of the second PA200 binding event [4]: 150 nM
Molecule: recombinantly expressed and purified human PA200 (from UniProt Q14997 1-1843) (natural protein)

stoichiometry N [5]: 2
B1: recombinantly expressed and purified human PA200, Q14997 1-1843 (natural protein)
chain: T3 chain
